# Data as given in PMC12136000.
# Target: FLAG-tagged eIF3d (wild-type eIF3D-FLAG) (UniProt O15371)
# Test: co-IP; HeLa lysate (50 mM Tris pH7.5, 150 mM NaCl, 1% Triton-X, Benzonase) on anti-flag-beads for 2 h at 4 °C, three washes, western blot; cells treated for 2 h with DMSO or with 3 µM of the CK2 inhibitor CX-5011 before lysis
# Chain of UniProt O15371 (O15371 whole entry): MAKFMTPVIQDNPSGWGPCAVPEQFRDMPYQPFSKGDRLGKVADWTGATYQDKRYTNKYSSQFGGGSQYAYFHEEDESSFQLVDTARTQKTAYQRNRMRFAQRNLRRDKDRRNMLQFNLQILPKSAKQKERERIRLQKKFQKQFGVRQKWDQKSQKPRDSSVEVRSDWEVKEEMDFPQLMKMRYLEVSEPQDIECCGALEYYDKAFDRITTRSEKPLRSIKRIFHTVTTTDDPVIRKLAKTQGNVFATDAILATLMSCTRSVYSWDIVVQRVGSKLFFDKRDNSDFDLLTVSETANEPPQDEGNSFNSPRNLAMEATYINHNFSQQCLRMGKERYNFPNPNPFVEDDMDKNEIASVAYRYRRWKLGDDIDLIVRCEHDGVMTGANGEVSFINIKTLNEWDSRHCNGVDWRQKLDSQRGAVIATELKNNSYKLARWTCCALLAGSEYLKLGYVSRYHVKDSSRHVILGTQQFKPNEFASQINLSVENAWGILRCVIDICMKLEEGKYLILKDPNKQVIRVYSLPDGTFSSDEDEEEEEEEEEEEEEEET
substance,measurement,value
eIF4A (from UniProt P60842 1-406) (natural protein),decrease of co-precipitation (IP relative to input) after the CK2 inhibitor CX-5011,37 % decrease
